T1: Angiotensin converting enzyme (ACE)
T1 sequence (F1RRW5 whole entry, species assumed, looked up): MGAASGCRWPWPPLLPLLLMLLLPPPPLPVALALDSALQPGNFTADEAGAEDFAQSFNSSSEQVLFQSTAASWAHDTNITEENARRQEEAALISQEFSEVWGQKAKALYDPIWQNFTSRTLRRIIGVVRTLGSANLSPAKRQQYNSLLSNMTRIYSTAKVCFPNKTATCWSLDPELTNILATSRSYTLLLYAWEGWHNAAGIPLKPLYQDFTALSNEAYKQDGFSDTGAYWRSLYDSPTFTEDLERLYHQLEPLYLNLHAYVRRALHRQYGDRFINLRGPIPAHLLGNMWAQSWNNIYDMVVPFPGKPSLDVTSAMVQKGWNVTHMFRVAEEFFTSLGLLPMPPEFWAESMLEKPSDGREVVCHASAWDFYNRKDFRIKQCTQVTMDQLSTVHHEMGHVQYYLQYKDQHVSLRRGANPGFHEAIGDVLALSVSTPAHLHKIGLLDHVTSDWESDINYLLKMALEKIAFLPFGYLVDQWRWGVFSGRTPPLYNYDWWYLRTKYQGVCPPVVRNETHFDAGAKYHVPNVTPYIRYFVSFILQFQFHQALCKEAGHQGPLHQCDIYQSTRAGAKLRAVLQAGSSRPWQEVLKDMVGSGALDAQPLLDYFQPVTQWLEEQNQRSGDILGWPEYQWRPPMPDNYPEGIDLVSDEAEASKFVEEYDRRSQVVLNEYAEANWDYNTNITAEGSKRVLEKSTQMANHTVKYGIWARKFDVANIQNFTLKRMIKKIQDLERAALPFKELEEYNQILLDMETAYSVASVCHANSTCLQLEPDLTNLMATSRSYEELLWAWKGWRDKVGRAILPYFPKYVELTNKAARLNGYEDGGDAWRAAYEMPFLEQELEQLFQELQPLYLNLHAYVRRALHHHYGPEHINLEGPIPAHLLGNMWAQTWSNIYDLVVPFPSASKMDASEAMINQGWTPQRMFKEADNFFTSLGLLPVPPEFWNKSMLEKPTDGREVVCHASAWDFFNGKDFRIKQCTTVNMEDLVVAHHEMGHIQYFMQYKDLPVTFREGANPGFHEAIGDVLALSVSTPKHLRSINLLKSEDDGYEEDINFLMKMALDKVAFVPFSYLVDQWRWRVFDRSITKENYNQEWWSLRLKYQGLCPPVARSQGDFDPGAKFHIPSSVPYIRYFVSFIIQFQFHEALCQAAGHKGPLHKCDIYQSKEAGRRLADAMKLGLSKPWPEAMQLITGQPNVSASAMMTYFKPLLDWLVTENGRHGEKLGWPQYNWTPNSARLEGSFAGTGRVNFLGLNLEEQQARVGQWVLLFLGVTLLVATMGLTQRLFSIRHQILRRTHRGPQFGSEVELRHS


Target: T1, Angiotensin converting enzyme (ACE)
Experiment: cell-based or functional assay

ACE inhibitory activity (IC50) [µM] | Binder
172 | ILPP [Ile-Leu-Pro-Pro (ILPP)]
97 | VLPP [Val-Leu-Pro-Pro (VLPP)]
